Columns and labels:
GCN4 [1] = molecular target: T1, GCN4 (Ganoderma lucidum, UniProt A0A6H0YJ80 1-300); assay: SPR; conditions: SPR: 10 mM HEPES pH 7.4, 150 mM NaCl, 3 mM EDTA, 0.005% P20, 25 C, SA chip, GCN4 7.81-125 nM; EMSA: Thermo 89880 kit, conditions not stated; in M (unit assumed)
GCN4 [2] = molecular target: T1, GCN4; assay: EMSA; SPR: 10 mM HEPES pH 7.4, 150 mM NaCl, 3 mM EDTA, 0.005% P20, 25 C, SA chip, GCN4 7.81-125 nM; EMSA: Thermo 89880 kit, conditions not stated; conditions: protein: recombinant; tags: His; chain copies: 2; blunt

T1 sequence (A0A6H0YJ80 entry or part of it): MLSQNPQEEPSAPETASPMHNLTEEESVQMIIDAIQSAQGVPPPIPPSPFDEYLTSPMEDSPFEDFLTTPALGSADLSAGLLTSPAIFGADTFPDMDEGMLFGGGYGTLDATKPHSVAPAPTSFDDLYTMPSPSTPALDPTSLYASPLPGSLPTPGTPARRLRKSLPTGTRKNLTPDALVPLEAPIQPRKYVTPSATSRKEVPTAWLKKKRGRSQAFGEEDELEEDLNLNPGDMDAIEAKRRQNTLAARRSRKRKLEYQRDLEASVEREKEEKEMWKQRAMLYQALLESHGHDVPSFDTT

Molecule	Kd (M (unit not given)) (GCN4 [1])	binding result (GCN4 [2])
SWI6 (GBE) SPR probe	8.79e-08	–
SWI6 promoter GBE probe (pSwi6-Biotin) (dsDNA) DNA 1: GAAAGTACCAGGGCACCTGGTGAGTCTCAGTCTCGGTGCCATG DNA 2: CATGGCACCGAGACTGAGACTCACCAGGTGCCCTGGTACTTTC	–	binds
m-SWI6 mutant probe (pSwi6-M-Biotin) (dsDNA) DNA 1: GAAAGTACCAGGGATAAATTTATTATATAGTCTCGGTGCCATG DNA 2: CATGGCACCGAGACTATATAATAAATTTATCCCTGGTACTTTC	–	no binding

Source: publication PMC12016525, “The GCN4-Swi6B module mediates low nitrogen-induced cell wall remodeling in Ganoderma lucidum”
